Source: the supplement of paper PMC7877785
± gives the uncertainty stated by the source.

Test: self-splicing fitness, log relative to wild type (ln ratio); higher = more splicing; Tetrahymena group I intron in knt gene, E. coli kanamycin selection, DiMSum; sequences stand for … in CUCUCU…GGAGGGAAAAGUUAUCAGGCAUGCACCUGGUAGCUAGUCUUUAAACCAAUAGAUUGCAUCGGUUUAAAAGGCAAGACCGUCAAAUUGCGGGAAAGGGGUCAACAGCCGUUCAGUACCAAGUCUCAGGGGAAACUUUGAGAUGGCCUUGCAAAGGGUAUGGUAAUAAGCUGACGGACAUGGUCCUAACCACGCAGCCAAGUCCUAAGUCAACAGAUCUUCUGUUGAUAUGGAUGCAGUUCACAGACUAAAUGUCGGUCGGGGAAGAUGUAUUCUUCUCAUAAGAUAUAGUCGGACCUCUCCUUAAUGGGAGCUAGCGGAUGAAGUGAUGCAACACUGGAGCCGCUGGGAACUAAUUUGUAUGCGAAAGUAUAUUGAUUAGUUUUGGAGUACUCGUGGUCG
Outline: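 Pooled colonies went to amplicon sequencing on an Illumina HiSeq 2500 after six replicate transformations. The plates were LB agar with 100 μg/mL carbenicillin, 50 μM IPTG and 0.2% rhamnose, with or without 25 μg/mL kanamycin, incubated overnight at 37°C or 30°C. The E. coli BL21(DE3) library had all eight P1ex-region intron nucleotides randomised, the intron placed in the knt kanamycin-resistance gene on pET-22b(+). DiMSum fitness is the error-weighted combination of replicate fold changes, kanamycin against none, normalised to wild type.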

ACUUAGCAAUAUUACGGUUG
self-splicing fitness (ln) (30 °C): -3.15 ± 0.17
self-splicing fitness (ln) (37 °C): -1.43 ± 0.15

GAACAGCAAUAUUACGAAGC
self-splicing fitness (ln) (30 °C): -1.37 ± 0.1
self-splicing fitness (ln) (37 °C): -1.14 ± 0.13

GGCGAGCAAUAUUACGAGUU
self-splicing fitness (ln) (30 °C): -2.42 ± 0.14
self-splicing fitness (ln) (37 °C): -1.19 ± 0.16

AGGAAGCAAUAUUACGUCUG
self-splicing fitness (ln) (30 °C): -0.767 ± 0.058
self-splicing fitness (ln) (37 °C): -0.387 ± 0.073

CAAAAGCAAUAUUACGGUCC
self-splicing fitness (ln) (30 °C): -3.68 ± 0.29
self-splicing fitness (ln) (37 °C): -1.88 ± 0.21

CAGCAGCAAUAUUACGCUUU
self-splicing fitness (ln) (30 °C): -2.76 ± 0.14
self-splicing fitness (ln) (37 °C): -1.63 ± 0.12

UCUCAGCAAUAUUACGUGCA
self-splicing fitness (ln) (30 °C): -0.751 ± 0.065
self-splicing fitness (ln) (37 °C): -0.0852 ± 0.071

GGCUAGCAAUAUUACGAUAG
self-splicing fitness (ln) (37 °C): -2.41 ± 0.39

UGGAAGCAAUAUUACGAUCG
self-splicing fitness (ln) (30 °C): 0.288 ± 0.14
self-splicing fitness (ln) (37 °C): 0.382 ± 0.15

UCUCAGCAAUAUUACGGUCU
self-splicing fitness (ln) (30 °C): -3.23 ± 0.2
self-splicing fitness (ln) (37 °C): -1.74 ± 0.15

GUGCAGCAAUAUUACGGCAG
self-splicing fitness (ln) (30 °C): -2.71 ± 0.33
self-splicing fitness (ln) (37 °C): -1.04 ± 0.25

GACGAGCAAUAUUACGCAUG
self-splicing fitness (ln) (30 °C): -3.07 ± 0.25
self-splicing fitness (ln) (37 °C): -1.61 ± 0.19

CCCAAGCAAUAUUACGGCGC
self-splicing fitness (ln) (37 °C): -2.73 ± 0.25

GCUUAGCAAUAUUACGCAUU
self-splicing fitness (ln) (30 °C): -0.542 ± 0.095
self-splicing fitness (ln) (37 °C): -0.78 ± 0.12

UGUUAGCAAUAUUACGUGCU
self-splicing fitness (ln) (30 °C): -1.95 ± 0.13
self-splicing fitness (ln) (37 °C): -1.51 ± 0.13

AAAGAGCAAUAUUACGGCCG
self-splicing fitness (ln) (30 °C): -1.78 ± 0.18
self-splicing fitness (ln) (37 °C): -0.0792 ± 0.23

UCUCAGCAAUAUUACGCUUG
self-splicing fitness (ln) (30 °C): -3.17 ± 0.16
self-splicing fitness (ln) (37 °C): -3.32 ± 0.33

GUGGAGCAAUAUUACGGGGU
self-splicing fitness (ln) (30 °C): -3.24 ± 0.44
self-splicing fitness (ln) (37 °C): -2.26 ± 0.42

GGGUAGCAAUAUUACGUGCA
self-splicing fitness (ln) (30 °C): -0.359 ± 0.12
self-splicing fitness (ln) (37 °C): -0.483 ± 0.14

CAGUAGCAAUAUUACGGGAA
self-splicing fitness (ln) (30 °C): -2.93 ± 0.26
self-splicing fitness (ln) (37 °C): -2.44 ± 0.25

AGAAAGCAAUAUUACGAUGA
self-splicing fitness (ln) (30 °C): -0.734 ± 0.1
self-splicing fitness (ln) (37 °C): -0.785 ± 0.11

AUGGAGCAAUAUUACGGCGA
self-splicing fitness (ln) (37 °C): -1.68 ± 0.29

AAGCAGCAAUAUUACGCGUC
self-splicing fitness (ln) (30 °C): -3.03 ± 0.16
self-splicing fitness (ln) (37 °C): -1.7 ± 0.15

UCUAAGCAAUAUUACGUGAU
self-splicing fitness (ln) (30 °C): -4.27 ± 0.22
self-splicing fitness (ln) (37 °C): -2.69 ± 0.18

CGGGAGCAAUAUUACGGUGC
self-splicing fitness (ln) (30 °C): -3.21 ± 0.49

CACCAGCAAUAUUACGUGAU
self-splicing fitness (ln) (30 °C): -3.47 ± 0.12
self-splicing fitness (ln) (37 °C): -3 ± 0.19

GUAAAGCAAUAUUACGAGAA
self-splicing fitness (ln) (30 °C): -2.06 ± 0.14
self-splicing fitness (ln) (37 °C): -0.181 ± 0.21

UUGUAGCAAUAUUACGCAUG
self-splicing fitness (ln) (30 °C): -1.86 ± 0.13
self-splicing fitness (ln) (37 °C): 0.0958 ± 0.14

UCGAAGCAAUAUUACGGAGG
self-splicing fitness (ln) (30 °C): -2.79 ± 0.32
self-splicing fitness (ln) (37 °C): -1.82 ± 0.41

UCCCAGCAAUAUUACGGGAU
self-splicing fitness (ln) (30 °C): -3.59 ± 0.14
self-splicing fitness (ln) (37 °C): -3.46 ± 0.21

ACACAGCAAUAUUACGUGAA
self-splicing fitness (ln) (30 °C): -1.84 ± 0.055
self-splicing fitness (ln) (37 °C): -1.11 ± 0.079

ACUGAGCAAUAUUACGACUC
self-splicing fitness (ln) (30 °C): -2.18 ± 0.16
self-splicing fitness (ln) (37 °C): -1.13 ± 0.2

UCACAGCAAUAUUACGUCUG
self-splicing fitness (ln) (30 °C): -3.02 ± 0.13
self-splicing fitness (ln) (37 °C): -0.735 ± 0.11

UGCCAGCAAUAUUACGAUAC
self-splicing fitness (ln) (30 °C): -3.95 ± 0.25
self-splicing fitness (ln) (37 °C): -2.29 ± 0.25

CCCCAGCAAUAUUACGCUUA
self-splicing fitness (ln) (30 °C): -3.59 ± 0.17
self-splicing fitness (ln) (37 °C): -2.66 ± 0.17

AUACAGCAAUAUUACGGACC
self-splicing fitness (ln) (30 °C): -0.965 ± 0.21
self-splicing fitness (ln) (37 °C): -1.07 ± 0.26

UAACAGCAAUAUUACGUUCU
self-splicing fitness (ln) (30 °C): -1.17 ± 0.08
self-splicing fitness (ln) (37 °C): -0.668 ± 0.079

CCAAAGCAAUAUUACGACGG
self-splicing fitness (ln) (30 °C): -3.1 ± 0.14
self-splicing fitness (ln) (37 °C): -2.43 ± 0.19

CCUUAGCAAUAUUACGAGUA
self-splicing fitness (ln) (30 °C): -2.81 ± 0.29
self-splicing fitness (ln) (37 °C): -2.42 ± 0.26

UUCAAGCAAUAUUACGGCAU
self-splicing fitness (ln) (30 °C): -1.71 ± 0.065
self-splicing fitness (ln) (37 °C): -0.546 ± 0.075

CCCCAGCAAUAUUACGCAAA
self-splicing fitness (ln) (30 °C): -3.28 ± 0.14
self-splicing fitness (ln) (37 °C): -2.44 ± 0.18

UAUGAGCAAUAUUACGACUU
self-splicing fitness (ln) (30 °C): -2.66 ± 0.24

AGCUAGCAAUAUUACGUAGA
self-splicing fitness (ln) (30 °C): -4.65 ± 0.32
self-splicing fitness (ln) (37 °C): -1.15 ± 0.14

CCUAAGCAAUAUUACGGCUA
self-splicing fitness (ln) (30 °C): -3.69 ± 0.47
self-splicing fitness (ln) (37 °C): -3.14 ± 0.25

GGCGAGCAAUAUUACGCGUC
self-splicing fitness (ln) (37 °C): -2.65 ± 0.39

UCUCAGCAAUAUUACGAAGA
self-splicing fitness (ln) (30 °C): -1.98 ± 0.15
self-splicing fitness (ln) (37 °C): -1.21 ± 0.15

UCUAAGCAAUAUUACGAUGA
self-splicing fitness (ln) (30 °C): -0.162 ± 0.058
self-splicing fitness (ln) (37 °C): 0.0109 ± 0.072

CAGCAGCAAUAUUACGGAAC
self-splicing fitness (ln) (30 °C): -1.79 ± 0.3
self-splicing fitness (ln) (37 °C): -1.87 ± 0.44

GUGGAGCAAUAUUACGUUAC
self-splicing fitness (ln) (30 °C): -2.99 ± 0.24
self-splicing fitness (ln) (37 °C): -2.5 ± 0.3
